{"source": "patent US20230381277A1", "about": "“HIGH AFFINITY IL-2 RECEPTOR AGONISTS AND IMMUNOSUPPRESSANTS TO ENHANCE IMMUNE TOLERANCE” (Selecta Biosciences, Inc., priority 2022, published 2023)", "tested_on": "Ovalbumin-specific OTII T cells", "assay": "Example 5: adoptive transfer of ovalbumin-specific OTII T cells, antigen-specific Treg induction", "format": "in vivo", "conditions": "mice with adoptively transferred OTII T cells; starting level ~3%", "method": "However, expansion of antigen-specific Treg can be more desirable than expansion of total Treg. The ability of ImmTOR plus antigen combined with IL-2 mutein to induce and/or expand antigen-specific Treg was evaluated. Ovalbumin-specific OTII T cells were adoptively transferred into mice prior to treatment with ovalbumin and ImmTOR and/or IL-2 mutein."}
{"molecule": "ovalbumin (protein, UniProt P01012 2-386, looked up) Ovalbumin: GSIGAASMEFCFDVFKELKVHHANENIFYCPIAIMSALAMVYLGAKDSTRTQINKVVRFDKLPGFGDSIEAQCGTSVNVHSSLRDILNQITKPNDVYSFSLASRLYAEERYPILPEYLQCVKELYRGGLEPINFQTAADQARELINSWVESQTNGIIRNVLQPSSVDSQTAMVLVNAIVFKGLWEKAFKDEDTQAMPFRVTEQESKPVQMMYQIGLFRVASMASEKMKILELPFASGTMSMLVLLPDEVSGLEQLESIINFEKLTEWTSSNVMEERKIKVYLPRMKMEEKYNLTSVLMAMGITDVFSSSANLSGISSAESLKISQAVHAAHAEINEAGREVVGSAEAGVDAASVSEEFRADHPFLFCIKHIATNAVLFFGRCVSP", "values": [{"measurement": "percentage of Foxp3+ DTII cells", "result": "~6", "unit": "%"}]}
